The term Km denotes the concentration of substrate that gives half-maximal velocity.

Substrate in this data set: O=C1O[C@H]([C@@H](O)CO)[C@H](O)[C@@H]1O
The data set is described as follows: ascorbic acid formation, colorimetric kit; Lineweaver-Burk. Format: biochemical, Rattus norvegicus. Particulars: 50 mM potassium phosphate pH 7.0, 50 mM citrate, 1 mM DTT, 10 µM FAD, aerobic (O2), 37 °C.

B1: cGULO (C-terminal catalytic domain of rat GULO, cGULO-His) (Rattus norvegicus) (protein)
chain: NRFFFWMLFNCKKESSNLSHKIFTYECRFKQHVQDWAIPREKTKEALLELKAMLEAHPKVVAHYPVEVRFTRGDDILLSPCFQRDSCYMNIIMYRPYGKDVPRLDYWLAYETIMKKFGGRPHWAKAHNCTQKDFEEMYPTFHKFCDIREKLDPTGMFLNSYLEKVFY
notes: C-terminal cytoplasmic (catalytic ALO) domain, 167 residues, lacks 273 N-terminal residues incl
In the case of B1, the Michaelis constant (Km) worked out at 42 ± 6.3 µM.

B2: fGULO (full-length rat GULO, fGULO-His) (Rattus norvegicus) (protein)
chain: MVHGYKGVQFQNWAKTYGCSPEVYYQPTSVEEVREVLALAREQKKKVKVVGGGHSPSDIACTDGFMIHMGKMNRVLQVDKEKKQITVEAGILLADLHPQLDEHGLAMSNLGAVSDVTVAGVIGSGTHNTGIKHGILATQVVALTLMTADGEVLECSESRNADVFQAARVHLGCLGIILTVTLQCVPQFHLQETSFPSTLKEVLDNLDSHLKRSEYFRFLWFPHTENVSIIYQDHTNKAPSSASNWFWDYAIGFYLLEFLLWTSTYLPCLVGWINRFFFWMLFNCKKESSNLSHKIFTYECRFKQHVQDWAIPREKTKEALLELKAMLEAHPKVVAHYPVEVRFTRGDDILLSPCFQRDSCYMNIIMYRPYGKDVPRLDYWLAYETIMKKFGGRPHWAKAHNCTQKDFEEMYPTFHKFCDIREKLDPTGMFLNSYLEKVFY
Take B2: the Km was 53.5 ± 5 µM.

These data come from article PMC11352566, “Recombinant C-Terminal Catalytic Domain of Rat L-Gulono Lactone Oxidase Produced in Bacterial Cells Is Enzymatically Active” (Current Issues in Molecular Biology, 2024).
